Results taken from patent US20160130336A1.

Target: mVEGF (mouse (from the prefix m only; not spelled out in the filing)) (UniProt Q00731)
Assay: BIAcore (SPR), column mVEGF

Sequence of mVEGF (mouse (from the prefix m only; not spelled out in the filing)) (Q00731 other isoform, or with tags, fused parts or gaps limits assumed): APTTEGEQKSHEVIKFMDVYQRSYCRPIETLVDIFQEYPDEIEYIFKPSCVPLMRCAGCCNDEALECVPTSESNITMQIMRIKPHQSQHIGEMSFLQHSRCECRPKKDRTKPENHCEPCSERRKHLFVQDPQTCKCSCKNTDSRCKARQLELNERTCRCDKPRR

Kd: 6.88 nM
Substance: Avastin® (bevacizumab) (antibody)
